Results from paper PMC2955986 (Journal of thrombosis and haemostasis : JTH, 2010).

Key:
TFPI (Homo sapiens) = TFPI (Homo sapiens) (UniProt P10646); conditions: cited from earlier work
Factor X [1] = test: fluid phase binding assay
[2] = biological target: Soluble tissue factor (residues 1-218); test: fluid phase binding assay
[3] = biological target: Soluble tissue factor (residues 1-218); test: fluid phase binding assay; remark: listed apart in the source
[4] = biological target: Soluble tissue factor (residues 1-218); test: ELISA
factor X [5] = biological target: T1, factor X (Homo sapiens, UniProt P00742)
T1 chain: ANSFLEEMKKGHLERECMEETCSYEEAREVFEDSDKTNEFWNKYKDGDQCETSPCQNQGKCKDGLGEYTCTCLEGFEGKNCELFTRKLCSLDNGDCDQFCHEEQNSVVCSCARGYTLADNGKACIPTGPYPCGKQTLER

[6] = biological target: T2, Zn^2+-containing protein S (immunoaffinity-purified) (UniProt P07225 42-676); test: fluid phase binding assay
T2 sequence (looked up): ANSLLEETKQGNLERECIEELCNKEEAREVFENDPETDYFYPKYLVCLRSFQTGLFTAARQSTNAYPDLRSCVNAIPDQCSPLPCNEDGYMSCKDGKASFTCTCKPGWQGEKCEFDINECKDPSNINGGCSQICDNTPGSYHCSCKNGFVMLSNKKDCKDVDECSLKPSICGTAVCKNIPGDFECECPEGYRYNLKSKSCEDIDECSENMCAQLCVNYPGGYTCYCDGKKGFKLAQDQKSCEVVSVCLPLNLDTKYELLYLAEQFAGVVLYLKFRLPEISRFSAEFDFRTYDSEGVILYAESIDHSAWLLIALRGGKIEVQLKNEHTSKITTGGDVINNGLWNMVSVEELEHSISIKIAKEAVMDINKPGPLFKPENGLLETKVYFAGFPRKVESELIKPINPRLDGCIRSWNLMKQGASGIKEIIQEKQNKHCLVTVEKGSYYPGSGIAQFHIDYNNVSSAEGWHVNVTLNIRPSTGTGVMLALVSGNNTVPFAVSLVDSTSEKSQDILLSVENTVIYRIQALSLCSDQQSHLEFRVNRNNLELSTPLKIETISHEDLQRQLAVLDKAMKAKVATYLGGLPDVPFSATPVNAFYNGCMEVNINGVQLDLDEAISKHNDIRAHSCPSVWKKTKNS

Sequence of TFPI (Homo sapiens) (P10646 29-304): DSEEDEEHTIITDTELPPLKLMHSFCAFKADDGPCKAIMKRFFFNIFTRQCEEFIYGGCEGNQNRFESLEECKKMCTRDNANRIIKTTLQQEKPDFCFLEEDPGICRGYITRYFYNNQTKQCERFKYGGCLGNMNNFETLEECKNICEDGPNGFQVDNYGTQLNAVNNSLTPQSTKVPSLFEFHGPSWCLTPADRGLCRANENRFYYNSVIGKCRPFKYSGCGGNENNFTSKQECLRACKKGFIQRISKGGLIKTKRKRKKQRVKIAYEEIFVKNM

Molecule: protein S (from UniProt P07225)
- Kd (TFPI (Homo sapiens)): 21 nM

B1: Zn^2+-containing protein S (immunoaffinity-purified) (natural protein)
chain: T2 sequence (looked up)
- Kd (Factor X [1]): 127 nM
- Kd [2]: 41 nM
- Kd [3]: 41 nM

B2: Zn^2+-reconstituted commercial protein S (natural protein)
chain: T2 sequence (looked up)
- Kd [4]: 39 nM

B3: protein S (protein)
chain: T2 sequence (looked up)
modifications: Zn2+-containing
- Kd (factor X [5]): ~130 nM

B4: Full length nonlipidated tissue factor (natural protein, UniProt P13726 33-295, looked up)
chain: SGTTNTVAAYNLTWKSTNFKTILEWEPKPVNQVYTVQISTKSGDWKSKCFYTTDTECDLTDEIVKDVKQTYLARVFSYPAGNVESTGSAGEPLYENSPEFTPYLETNLGQPTIQSFEQVGTKVNVTVEDERTLVRRNNTFLSLRDVFGKDLIYTLYYWKSSSSGKKTAKTNTNEFLIDVDKGENYCFSVQAVIPSRTVNRKSTDSPVECMGQEKGEFREIFYIIGAVVFVVIILVIILAISLHKCRKAGVGQSWKENSPLNVS
- Kd [6]: 41 nM
